Molecular target: PcrV as expressed by live P. aeruginosa (strains 6077 and 6206) in the cytotoxicity and RBC lysis assays (Pseudomonas aeruginosa)
Test: cell-based or functional assay

B1: anti-PcrV monoclonal antibody V2L2 (antibody, V domains shown)
VH: EMQLLESGGGLVQPGGSLRLSCAASGFTFSSYAMNWVRQAPGEGLEWVSAITISGITAYYTDSVKGRFTISRDNSKNTLYLQMNSLRAGDTAVYYCAKEEFLPGTHYYYGMDVWGQGTTVTVSS
VL: AIQMTQSPSSLSASVGDRVTITCRASQGIRNDLGWYQQKPGKAPKLVIYSASTLQSGVPSRFSGSGSGTDFTLSISSLQPDDFATYYCLQDYNYPWTFGQGTKVEIK
For B1, which “inhibition of cytotoxicity (A549 lysis by P. aeruginosa 6077, LDH release), IC50” value is on record?
The value was 0.1 µg/mL.

And the “inhibition of cytotoxicity, IC50 relative to mAb166” value?
The value was 28 fold lower.

And the “prevention of RBC lysis (rabbit RBCs, P. aeruginosa 6077), IC50” value?
Its value is 0.37 µg/mL.

What about the “prevention of RBC lysis, IC50 relative to mAb166” value of the same binder?
The value was 10 fold lower.
